This note sets out measurements from article PMC10491252 (bioRxiv, 2023).

A word on the stoichiometry N: it is a count of units in the complex or per binding partner.

In data set [1] the target is ERFE CLR* (center PGP of the collagen-like repeat mutated to SSS) (human) (UniProt Q4G0M1). In words: AUC.
Data set [2] has as its target bone morphogenetic protein 6 (BMP6) (UniProt P22004).
The target of data set [3] is ERFE CLR* (center PGP of the collagen-like repeat mutated to SSS) (human) (UniProt Q4G0M1). Put plainly: non-reducing SDS-PAGE.
Data set [4] concerns the target ERFE CLR*ΔC1Q (human) (UniProt Q4G0M1). In words: AUC.
Data set [5] has the same target. In words: non-reducing SDS-PAGE.
Data set [6] addresses bone morphogenetic protein 6 (BMP6) (UniProt P22004). The source holds these as a separate data set.
The target of data set [7] is T1, bone morphogenetic protein 6 (BMP6) (UniProt P22004 375-513).
T1 sequence: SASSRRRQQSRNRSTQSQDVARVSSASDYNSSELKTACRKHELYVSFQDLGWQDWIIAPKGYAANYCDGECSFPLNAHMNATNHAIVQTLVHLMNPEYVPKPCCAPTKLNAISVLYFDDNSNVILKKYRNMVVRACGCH
In words: cell-based or functional assay.

The target in data set [8] is bone morphogenetic protein 2 (BMP2) (UniProt P12643 283-396). Put plainly: cell-based or functional assay.
Chain of bone morphogenetic protein 2 (BMP2) (P12643 283-396): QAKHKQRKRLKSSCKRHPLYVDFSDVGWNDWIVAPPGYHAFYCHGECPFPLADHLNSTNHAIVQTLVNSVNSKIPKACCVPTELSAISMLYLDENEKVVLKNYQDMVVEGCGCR
Data set [9] addresses T2, bone morphogenetic protein 7 (BMP7) (UniProt P18075 293-431).
T2 sequence: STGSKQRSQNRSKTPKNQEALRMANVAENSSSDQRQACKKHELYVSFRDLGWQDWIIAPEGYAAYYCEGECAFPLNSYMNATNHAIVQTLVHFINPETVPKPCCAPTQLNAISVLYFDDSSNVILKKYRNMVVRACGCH
Put plainly: cell-based or functional assay.

Data set [10] deals with T3, growth differentiation factor 5 (GDF5) (UniProt P43026 382-501).
T3 sequence: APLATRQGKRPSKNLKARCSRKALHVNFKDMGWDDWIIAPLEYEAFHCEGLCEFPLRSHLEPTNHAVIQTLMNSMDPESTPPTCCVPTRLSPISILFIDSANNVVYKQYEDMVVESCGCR
In words: cell-based or functional assay.

Data set [11] deals with the molecule itself. Put plainly: AUC.
In data set [12] the target is T1, bone morphogenetic protein 6 (BMP6). Put plainly: cell-based or functional assay. This is another data set of the same source.
Data set [13] concerns the molecule itself. In words: AUC. This is another data set of the same source.
The data set “non-reducing SDS-PAGE” deals with the molecule itself. Put plainly: non-reducing SDS-PAGE.

Values joined by “and” are separate entries in the source; they are usually repeats but may differ in a detail not shown here. Equal values may be shown once.

With “ERFE CLR* (center PGP of the collagen-like repeat mutated to SSS) (from UniProt Q4G0M1 44-354) (natural protein)”, the values for the stoichiometry N in data set [1] and in [3] were 3 and 2, respectively. In addition, the IC50 of inhibition of 2.5nM BMP6, luciferase reporter in BRITER cells in [2] is 6.1 nM.

In the data set with ERFE CLR*ΔC1Q (human) [4], “ERFE CLR*ΔC1Q (from UniProt Q4G0M1 44-207) (domain or fragment)” yielded a percent of the protein as dimer of 38%, a percent of the protein as monomer of 61% and a stoichiometry N of 2. In data set [2], this molecule displayed an IC50 of inhibition of 2.5nM BMP6, luciferase reporter in BRITER cells of 27 nM. The stoichiometry N with ERFE CLR*ΔC1Q (human) [5] was found to be 2.

B1: ERFE D90A (natural protein)
chain: PPPGNELPRGPGESRAGPAARPPEPTAERAHSVDPRDAWMLFVRQSAKGVNGKKRSRGKAKKLKFGLPGPPGPPGPQGPPGPIIPPEALLKEFQLLLKGAVRQRERAEPEPCTCGPAGPVAASLAPVSATAGEDDDDVVGDVLALLAAPLAPGPRAPRVEAAFLCRLRRDALVERRALHELGVYYLPDAEGAFRRGPGLNLTSGQYRAPVAGFYALAATLHVALGEPPRRGPPRPRDHLRLLICIQSRCQRNASLEAIMGLESSSELFTISVNGVLYLQMGQWTSVFLDNASGCSLTVRSGSHFSAVLLGV
B1: the IC50 of inhibition of BMP6, luciferase reporter in BRITER cells in data set [6] turned out to be 13 nM.

B2: erythroferrone (ERFE), wild type, N-terminally flag-tagged hERFE residues 44-354 (natural protein)
chain: PPPGNELPRGPGESRAGPAARPPEPTAERAHSVDPRDAWMLFVRQSDKGVNGKKRSRGKAKKLKFGLPGPPGPPGPQGPPGPIIPPEALLKEFQLLLKGAVRQRERAEPEPCTCGPAGPVAASLAPVSATAGEDDDDVVGDVLALLAAPLAPGPRAPRVEAAFLCRLRRDALVERRALHELGVYYLPDAEGAFRRGPGLNLTSGQYRAPVAGFYALAATLHVALGEPPRRGPPRPRDHLRLLICIQSRCQRNASLEAIMGLESSSELFTISVNGVLYLQMGQWTSVFLDNASGCSLTVRSGSHFSAVLLGV
Take B2: the “IC50 of ERFE inhibition of 2.5nM BMP6, BRE-luciferase reporter in BRITER cells” value in data set [7] was 5.2 nM. Also, in [8], the “IC50 of ERFE inhibition of 2.5nM BMP2, BRE-luciferase reporter in BRITER cells” value worked out at 170 nM. In data set [9], the “IC50 of ERFE inhibition of 2.5nM BMP7, BRE-luciferase reporter in BRITER cells” value was 8.9 nM. In addition, in data set [10], the “IC50 of ERFE inhibition of 2.5nM GDF5, BRE-luciferase reporter in BRITER cells” value stood at 130 nM. Further, the “stoichiometry N” value in “AUC [11]” is 3 and 6.

B3: ERFE Cys* (Cys155, 157 and 208 mutated to serines) (natural protein)
chain: PPPGNELPRGPGESRAGPAARPPEPTAERAHSVDPRDAWMLFVRQSDKGVNGKKRSRGKAKKLKFGLPGPPGPPGPQGPPGPIIPPEALLKEFQLLLKGAVRQRERAEPEPSTSGPAGPVAASLAPVSATAGEDDDDVVGDVLALLAAPLAPGPRAPRVEAAFLSRLRRDALVERRALHELGVYYLPDAEGAFRRGPGLNLTSGQYRAPVAGFYALAATLHVALGEPPRRGPPRPRDHLRLLICIQSRCQRNASLEAIMGLESSSELFTISVNGVLYLQMGQWTSVFLDNASGCSLTVRSGSHFSAVLLGV
With B3, in data set [12], the “IC50 of inhibition of 2.5nM BMP6, luciferase reporter in BRITER cells” value (shortened to “IC50 of inhibition of 2.5nM BMP6”) worked out at 8.7 nM. In addition, the “stoichiometry N” value in “AUC [11]” was determined as 3.

B4: ERFE N94A (natural protein)
chain: PPPGNELPRGPGESRAGPAARPPEPTAERAHSVDPRDAWMLFVRQSDKGVAGKKRSRGKAKKLKFGLPGPPGPPGPQGPPGPIIPPEALLKEFQLLLKGAVRQRERAEPEPCTCGPAGPVAASLAPVSATAGEDDDDVVGDVLALLAAPLAPGPRAPRVEAAFLCRLRRDALVERRALHELGVYYLPDAEGAFRRGPGLNLTSGQYRAPVAGFYALAATLHVALGEPPRRGPPRPRDHLRLLICIQSRCQRNASLEAIMGLESSSELFTISVNGVLYLQMGQWTSVFLDNASGCSLTVRSGSHFSAVLLGV
In turn, B4 yielded an IC50 of inhibition of BMP6, luciferase reporter in BRITER cells in data set [6] of 21 nM.

B5: ERFE ΔC1Q (stop codon at C208, entire C1Q domain removed) (domain or fragment)
chain: PPPGNELPRGPGESRAGPAARPPEPTAERAHSVDPRDAWMLFVRQSDKGVNGKKRSRGKAKKLKFGLPGPPGPPGPQGPPGPIIPPEALLKEFQLLLKGAVRQRERAEPEPCTCGPAGPVAASLAPVSATAGEDDDDVVGDVLALLAAPLAPGPRAPRVEAAFL
As to B5, the “stoichiometry N” value was found to be 3 in the data set “AUC [13]” and 2 in “non-reducing SDS-PAGE”. The “IC50 of inhibition of 2.5nM BMP6” value in [12] turned out to be 7.8 nM.

B6: ERFE Cys*ΔC1Q (domain or fragment)
chain: PPPGNELPRGPGESRAGPAARPPEPTAERAHSVDPRDAWMLFVRQSDKGVNGKKRSRGKAKKLKFGLPGPPGPPGPQGPPGPIIPPEALLKEFQLLLKGAVRQRERAEPEPSTSGPAGPVAASLAPVSATAGEDDDDVVGDVLALLAAPLAPGPRAPRVEAAFL
For the molecule B6, in the data set “AUC [13]”, the “stoichiometry N” value amounted to 3. Besides, in data set [12], the “IC50 of inhibition of 2.5nM BMP6” value is 97 nM.
